According to patent publication US20080009025A1, “PROTEIN KINASE REGULATION” (priority 1999, published 2008):
Positions count from the first letter of the chain named.

Key:
[1] = system: p70 S6K; assay: IGF1-induced activation and Thr412 phosphorylation of HA-p70 S6K in co-transfected 293 cells; format: cell-based, human; settings: 293 cells
Description: FIG. 3. PIF inhibits p70 S6K activation and phosphorylation at Thr252 and Thr412. 293 cells were co-transfected with constructs expressing the wild type (wt) full length HA-p70 S6K (A) or the full length HA-T412E p70 S6K (B) with either GST-PIF, GST-F977A-PIF, or GST. 24 h post transfection the cells were serum starved for 16 h and them stimulated for 40 min with 100 nM IGF 1. The cells were lysed and HA-p70 S6K was immunoprecipitated and assayed as described in methods. Protein from each lysate (10 μg for the HA blots or 20 μg for the T412-P blot) was electrophoresed on a 10% SDS/polyacrylamide gel and immunoblotted using HA-antibody or the T412-P antibody. The T412-P antibody was incubated with either the synthetic peptide (10 μg/ml) corresponding to residues 401 to 418 of p70 S6K phosphorylated at Thr412 (phosph-412E peptide), or the unphosphorylated peptide (de-phospho-Thr412 peptide). The T412-P antibody consistently recognises a protein termed “non specific band” in cell lysates which migrate at (75 kDa) derived from non transfected and transfected cells. […] It is not co-immunoprecipitated with HA-p70 S6K (date not shown). The HA-p70 S6K activities shown are the average ±SEM for a single experiment carried out in triplicate. Similar results were obtained in 8 separate experiments (A) and 2 experiments (B). The immunoblotting was carried out in 3 separate experiments with similar results.
Transient Transfection Experiments. The DNA constructs encoding for the wild type and mutant forms of HA-p70 S6K in the pMT2 vector used in this study have been described previously. […] The constructs used to express GST-PIF and the mutant GST-F977A-PIF [22] are in the pEBG2T vector. The empty pEBG2T vector was used to express GST protein in control experiments. DNA constructs used in this study were purified from bacteria using the Qiagen plasmid Mega kit according to the manufacturer's protocol.
293 cells cultured on 10 cm diameter dishes in Dulbecco's Modified Eagle's Medium containing 10% (by vol) foetal bovine serum, were transfected with 2 μg of DNA construct encoding either wild type or mutant HA-p70 S6K or HA-PKBα, and 10 μg of DNA construct encoding either GST-PIF, GST-F977A-PIF, GST, Myc-PDK1, kinase-dead Myc-PDK1, or the empty pCMV5 vector using a modified calcium phosphate method. 24 h post transfection the cells were deprived of serum for 16 h, and exposed to IGF1 (100 nM) for the time indicated. The cells were lysed in 1 ml of lysis buffer (50 mM Tris/HCl pH 7.5, 1 mM EDTA, 1 mM EGTA, 1% (by vol) Triton X-100, 1 mM sodium orthovanadate, 10 mM sodium β-glycerophosphate, 50 mM NaF, 5 mM sodium pyrophosphate, 1 μM microcystin-LR, 0.27 M sucrose and protease cocktail tablets), cleared by centrifugation, and 50 μg of protein was subjected to immunoprecipitation with anti HA monoclonal antibody. The protein concentrations of the lysates were determined by the Bradford method.
Kinase assays. The HA-p70 S6K or HA-PKBα immunoprecipitates were washed and assayed for kinase activity using the peptide Crosstide (GRPRTSSFAEG) as described previously for PKBα [28]. One unit of activity, U, was that amount which catalysed the phosphorylation of 1 nmol of substrate in one minute.
Immunoblotting for dephosphorylated and Thr412-phosphorylated p70 S6 kinase. Cell lysates were made 1% SDS and the indicated amounts of protein were subjected to SDS/Polyacrylamide gel electrophoresis, subsequently transferred to nitrocellulose and immunoblotted using the indicated monoclonal antibody or the T412-P phospho-specific antibody (0.4 μg/ml) in 50 mM Tris/HCl pH7.5, 0.15M NaCl, 0.5% (by vol) Tween and 10% (by mass) skimmed milk. Detection was performed using the enhanced chemiluminescence reagent (Amersham Pharmacia Biotech).

[2] = system: PDK1; settings: ref [22]; cited from earlier work
[3] = molecular target: T1, PDK1 (Homo sapiens, UniProt O15530); assay: Phosphorylation of GST-p70 S6K-T2 by PDK1 in vitro (32P autoradiography); format: biochemical; parameters: made in house; host or cells: 293 cells or E. coli; settings: GST fusion 1.5 μM; GST-PDK1 50 nM
T1 sequence (O15530 1-556): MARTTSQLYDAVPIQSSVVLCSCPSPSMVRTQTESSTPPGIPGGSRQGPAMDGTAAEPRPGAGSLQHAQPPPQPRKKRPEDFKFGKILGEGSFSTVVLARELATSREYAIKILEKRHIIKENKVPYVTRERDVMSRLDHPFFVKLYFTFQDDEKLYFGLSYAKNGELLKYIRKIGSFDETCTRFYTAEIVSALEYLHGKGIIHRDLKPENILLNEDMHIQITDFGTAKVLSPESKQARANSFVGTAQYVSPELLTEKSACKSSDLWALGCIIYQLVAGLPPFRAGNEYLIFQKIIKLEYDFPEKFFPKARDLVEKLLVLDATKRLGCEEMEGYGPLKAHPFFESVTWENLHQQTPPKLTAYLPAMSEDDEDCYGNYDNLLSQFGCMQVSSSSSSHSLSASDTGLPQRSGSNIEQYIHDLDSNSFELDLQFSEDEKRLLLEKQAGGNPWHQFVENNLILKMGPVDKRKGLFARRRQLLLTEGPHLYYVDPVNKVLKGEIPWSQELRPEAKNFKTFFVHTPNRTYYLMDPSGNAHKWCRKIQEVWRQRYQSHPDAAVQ
Description: FIG. 1. PIF prevents PDK1 from phosphorylating p70 S6K in vitro. GST-p70 S6K lacking the C-terminal 104 amino acids (GST-p70 S6KT2) (1 μg) was incubated for 30 min at 30° C. with Mg [γ^32P] ATP and GST-PDK1 (50 nM) in the presence or absence of either wild type (wt) GST-PIF or D978A GST-PIF (1.5 μM), or the indicated PIF peptides (4 μM) in a final volume of 20 μl. The reactions were terminated by making the solutions 1% in SDS, the samples subjected to SDS-polyacylamide gel electrophoresis, and the phosphorylation assessed by autoradiography of the gel. The position in the gel where GST-p70 S6KT2 (73 kDa) migrates is indicated with an arrow. The only other ^32P-labelled protein on the gel which is not shown, corresponded to autophosphorylation of PDK1 and contained ˜10 fold lower levels of ^32P-radioactivity than that of the GST-p70 S6T2 phosphorylated by PDK1 in the absence of PIF. A high amount of PDK1 is used in this experiment to achieve a near maximal phosphorylation of GST-p70 S6T2. If the reactions were carried out at a 10-fold lower concentration of PDK1 under conditions where the phosphorylation of GST-p70 S6T2 by PDK1 is linear with time and the amount of substrate used, then PIF still prevented the phosphorylation of GST-p70 S6T2 (data not shown). wt indicates wild type and PSer indicates phospho-serine. The results of a duplicate experiment for each condition are shown, and similar findings were obtained in five separate experiments.
Preparation of insect cell His-p70 S6K. p70 S6K with a His-epitope tag at its N-terminus lacking the carboxy terminal 104 residues is termed p70 S6K-T2. In order to prepare wild type and the mutant 412E-p70 S6K-T2 the cDNA for these constructs was amplified by PCR from the pMT2 vector encoding these forms of p70 S6K [6] using the following oligonucleotides: 5′-AGGATCCACCATGCACCATCACCATCACCATATGAGGCGAGCAAGGAGGCGG-3′ and 5′-GCGGCCGCTCAACTTTCAAGTACAGATGGAGCC-3′. The PCR products were then subcloned into the BamH1/Not1 sites of the pFASTBAC 1 vector and this vector was used to generate recombinant baculovirus using the Bac-to-Bac system (Life Technologies Inc). The resulting viruses, encoded p70 S6K-T2 or 412E-p70 S6K-T2 with an N-terminal hexahistidine sequence, and was used to infect Sf21 cells (1.5×10^6/m) at a multiplicity of infection of 5. The infected cells were harvested 72 h post-infection and the His-p70 S6K proteins purified by Ni^2+/NTA (nitrilotriacetic acid)-agarose chromatography as described previously for PKBβ [25]. […]

[4] = molecular target: T2, PDK1-wt (Homo sapiens, UniProt O15530); assay: Phosphorylation of AGC kinase substrates by PDK1 (32P, PhosphoImager); format: biochemical; settings: for Relative phosphorylation of PDK1 substrates PDK1-wt +PIFtide: with PIFtide; for Relative phosphorylation of PDK1 substrates PDK1-wt +PIFtide / Relative phosphorylation of PDK1 substrates PDK1-wt —: PKB[S473D] rate with PtdIns(3,4,5)P3 = 100; for Relative phosphorylation of PDK1 substrates PDK1-wt —: without PIFtide
T2 construct: made in house; host or cells: human embryonic kidney 293 cells
T2 sequence (O15530 1-556): T1 sequence (O15530 1-556)
Description: (§1) Phosphorylation of AGC kinase substrates by PDK1. The phosphorylation of PDK1 substrates was performed in a final volume of 20 μl in a buffer containing 50 mM Tris-HCl pH 7.5, 0.1% (by vol) 2-mercaptoethanol, 10 mM magnesium chloride, 100 μM [γ-^32P]ATP (˜1000 c.p.m./pmol), 0.5 μM microcystin-LR, 0.6 μM AGC kinase substrate and 0.6 to 30 nM wild type PDK1 or the indicated mutant of PDK1.
(§2) Relative phosphorylation of PDK1 substrates. PDK1 substrates were phosphorylated in vitro, subjected to SDS-PAGE, and radioactivity associated with the bands measured using a Phospho-Imager and known amounts of ATP as standard. The phosphorylation rate of PKB[S473D] in the presence of PtdIns (3,4,5)P3 was 2.6 mol/mol PDK1/min and was taken as the relative value of 100. Average values from a representative experiment performed in duplicates are shown.

[5] = molecular target: T3, PDK1-L155E (Homo sapiens, UniProt O15530, L155E); assay: as above; format: biochemical; settings: PKB[S473D] rate by PDK1-wt = 100; for Relative phosphorylation of PDK1 substrates PDK1-L155E +PIFtide: with PIFtide; for Relative phosphorylation of PDK1 substrates PDK1-L155E —: without PIFtide
T3 construct: made in house; host or cells: human embryonic kidney 293 cells
T3 sequence (O15530 1-556 L155E): T1 sequence (O15530 1-556) with L155E
Description: as §1, §2

Substance: GST-F977A-PIF: mutant form of GST-PIF which interacts with PDK1 weakly
- HA-p70 S6K activity after IGF1 stimulation ([1]; 100 nM IGF1 40 min): substantially activated
- IGF1-induced phosphorylation of HA-p70 S6K at Thr412 ([1]; T412-P antibody): still occurred but a lower level

Substance: GST-D978A-PIF: mutant GST-PIF in which the amino acid equivalent to Asp978 in PRK2 is mutated to Ala
- affinity for PDK1 compared with wild type PIF [2]: markedly reduced affinity
- effect on phosphorylation of GST-p70 S6K-T2 by PDK1 [3]: poorly inhibited

Substance: FL-PKB: full length GST-tagged PKBα
- Relative phosphorylation of PDK1 substrates PDK1-wt +PIFtide [4]: 19.3
- Relative phosphorylation of PDK1 substrates PDK1-wt — [4]: 28
- Relative phosphorylation of PDK1 substrates PDK1-L155E +PIFtide [5]: 35
- Relative phosphorylation of PDK1 substrates PDK1-L155E — [5]: 35

Substance: FL-PKB 473D: full length PKBα with Ser473 mutated to Asp
- phosphorylation rate ([4]; in the presence of PtdIns (3,4,5)P3): 2.6 mol/mol PDK1/min
- Relative phosphorylation of PDK1 substrates PDK1-wt +PIFtide [4]: 85.4
- Relative phosphorylation of PDK1 substrates PDK1-wt — [4]: 100
- Relative phosphorylation of PDK1 substrates PDK1-L155E +PIFtide [5]: 162
- Relative phosphorylation of PDK1 substrates PDK1-L155E — [5]: 178
